# Results published in the DeepSol protein solubility set.
# Experiment: soluble on expression in E. coli; label from the status in PepcDB or PDB records
row,Sequence,soluble on expression in E. coli
1,SADLLALLRDFTIHNREIKEDGDDIIFDNYAWNKSSKTNYIVWGTDKHGLIKEYYPLESIVYFLKNINLSHAQFVRQAAANGIFGIRLPDRQKLLDYLQGKITTCEAIDHSVPVDISQRRLVILQNNDKDPNDATGEPSSKRLCLEDGNSIDMANEGHSTDQQNEINLKESQRLAAKLQLPPGGKMTSDLYQNDPSKASTLIEHIPVDKIQMLRAKFRANHQQTIKPDESDVVPDKGKPLKSAIDAEEPIKPFVSKIQLGVTKNFVKEIMAREYTWRTRTTVLESHGKQFFDSVVLGTLKSVKLKEENLQHHTQRIGPHTPFPASNGHAGNVQQPAQAPTHYSRYDQERFTGAGQDTAGFKIDTMGTYHGKGLSSMMTDGSQANLTSRDPRANRQPAPRGLPPVSPGATPVDTGKGVTKANRAKSRVPIIIIPAAPTSLITMYNAKEILQDLRFEKTEDKKANGCRRDNDLLIQRLKSDGRTVPYRVIDQPNKLNREDWDRVVAVFVQGPAWQFKNWPIGSDPVEIFSLVKAFHLKYAHMPLHPDVKKWNVHVIQLDDHRHLDKANFQQIWDILDRHMV,soluble
2,SAEGDYYTLGNRQRIPRDPFREQSLASRFMDDDFGLPPFPNELSMDWPGWARPRLSHRLDAPWTGSLRSGFPRASMSSPQGFSSVYTESPRRASAPPTDSDEPWKVCVNVHSFKPEELNVKTKDGFVEVSGKHEEKQDEGGIVTKNFTKKIQIPLDVDPVTVFASLSPEGVLIIEARQTPPYYLYSNEMPAESMEEPEARPQEPSMTSTTTFEARE,soluble
3,SAENHCELLPPAPSGLGAGLGGGLCRRCSAGMGALAQRPGGVSKWVRLNVGGTYFLTTRQTLCRDPKSFLYRLCQADPDLDSDKDETGAYLIDRDPTYFGPVLNYLRHGKLVINKDLAEEGVLEEAEFYNITSLIKLVKDKIRERDSRISQMPVKHVYRVLQCQEEELTQMVSTMSDGWKFEQLVSIGSSYNYGNEDQAEFLCVVSKELHNTPYGTTSEPSEKAKILQERGSRM,soluble
4,SAGNAEPPPAGAACPQDRRSCSGRAGGDRVWEDGEHPAKKLKSGGDEERREKPPKRKIVLLMAYSGKGYHGMQRNVGSSQFKTIEDDLVSALVRSGCIPENHGEDMRKMSFQRCARTDKGVSAAGQVVSLKVWLIDDILEKINSHLPSHIRILGLKRVTGGFNSKNRCDARTYCYLLPTFAFAHKDRDVQDETYRLSAETLQQVNRLLACYKGTHNFHNFTSQKGPQDPSACRYILEMYCEEPFVREGLEFAVIRVKGQSFMMHQIRKMVGLVVAIVKGYAPESVLERSWGTEKVDVPKAPGLGLVLERVHFEKYNQRFGNDGLHEPLDWAQEEGKVAAFKEEHIYPTIIGTERDERSMAQWLSTLPIHNFSATALTAGGTGAKVPSPLEGSEGDGDTD,soluble
5,SAGRGKLIAVIGDEDTVTGFLLGGIGELNKNRHPNFLVVEKDTTINEIEDTFRQFLNRDDIGIILINQYIAEMVRHALDAHQRSIPAVLEIPSKEHPYDAAKDSILRRAKGMFTAEDLR,soluble
6,SANEAYPCPCDIGHRLEYGGLGREVQVEHIKAYVTKSPVDAGKAVIVIQDIFGWQLPNTRYIADMISGNGYTTIVPDFFVGQEPWDPSGDWSIFPEWLKTRNAQKIDREISAILKYLKQQCHAQKIGIVGFCWGGTAVHHLMMKYSEFRAGVSVYGIVKDSEDIYNLKNPTLFIFAENDVVIPLKDVSLLTQKLKEHCKVEYQIKTFSGQTHGFVHRKREDCSPADKPYIDEARRNLIEWLNKYM,soluble
7,SANSGCKDVTGPDEESFLYFAYGSNLLTERIHLRNPSAAFFCVARLQDFKLDFGNSQGKTSQTWHGGIATIFQSPGDEVWGVVWKMNKSNLNSLDEQEGVKSGMYVVIEVKVATQEGKEITCRSYLMTNYESAPPSPQYKKIICMGAKENGLPLEYQEKLKAIEPNDYTGKVSEEIEDIIKKGETQTL,soluble
8,SAPPLLSLPLCILPPGSGSPRLVCYCERDSGGDGDRDDFNLYVTDAAELWSTCFSPDSLARLKARFGLSGAEDIHSRFRAACQQQAVTVSLQEDRALITLSGDTPALAFDLSKVPSPEAAPRLQALTLSLAEHVCNLERRLAAAEETITSPKKNTQPAGTQFLPELDHQRGSSGPGVRRRCPGESLINPGFKSKKPAAGVDFDET,soluble
9,SAPVEHVVADAGAFLRHAALQDIGKNIYTIREVVTEIRDKATRRRLAVLPYELRFKEPLPEYVRLVTEFSKKTGDYPSLSATDIQVLALTYQLEAEFVGVSHLKQEPQKVKVSSSIQHPETPLHISGFHLPYKPKPPQETEKGHSACEPENLEFSSFMFWRNPLPNIDHELQELLIDRGEDVPSEEEEEEENGFEDRKDDSDDDGGGWITPSNIKQIQQELEQCDVPEDVRVGCLTTDFAMQNVLLQMGLHVLAVNGMLIREARSYILRCHGCFKTTSDMSRVFCSHCGNKTLKKVSVTVSDDGTLHMHFSRNPKVLNPRGLRYSLPTPKGGKYAINPHLTEDQRFPQLRLSQKARQKTNVFAPDYIAGVSPFVENDISSRSATLQVRDSTLGAGRRRLNPNASRKKFVKKR,soluble
10,SASATAPAAAVPTLASPLEQLRHLAEELRLLLPRVRVGEAQETTEEFNREMFWRRLNEAAVTVSREATTLTIVFSQLPLPSPQETQKFCEQVHAAIKAFIAVYYLLPKDQGITLRKLVRGATLDIVDGMAQLMEVLSVTPTQSPENNDLISYNSVWVACQQMPQIPRDNKAAALLMLTKNVDFVKDAHEEMEQAVEECDPYSGLLNDTEENNSDNHNHEDDVLGFPSNQDLYWSEDDQELIIPCLALVRASKACLKKIRMLVAENGKKDQVAQLDDIVDISDEISPSVDDLALSIYPPMCHLTVRINSAKLVSVLKKALEITKASHVTPQPEDSWIPLLINAIDHCMNRIKELTQSELEL,soluble
11,SASVEGDDDFGSSSSRSYQDQLYTELWKVCAGPLVEVPRAQERVFYFPQGHMEQLVASTNQGINSEEIPVFDLPPKILCRVLDVTLKAEHETDEVYAQITLQPEEDQSEPTSLDPPIVGPTKQEFHSFVKILTASDTSTHGGFSVLRKHATECLPSLDMTQATPTQELVTRDLHGFEWRFKHIFRGQPRRHLLTTGWSTFVSSKRLVAGDAFVFLRGENGDLRVGVRRLARHQSTMPTSVISSQSMHLGVLATASHAVRTTTIFVVFYKPRISQFIVGVNKYMEAIKHGFSLGTRFRMRFEGEESPERIFTGTIVGSGDLSSQWPASKWRSLQVQWDEPTTVQRPDKVSPWEIEPFLATSPISTPAQQPQSKCKRSRPIEPSVKTPAPPSFLYSLPQSQDSINASLKLFQDPSLERISGGYSSNNSFKPETPPPPTNCSYRLFGFDLTSNSPAPIPQDKQPMDTCGAAKCQEPITPTSMSEQKKQQTSRSRTKVQMQGIAVGRAVDLTLLKSYDELIDELEEMFEIQGQLLARDKWIVVFTDDEGDMMLAGDDPWNEFCKMAKKIFIYSSDEVKKMTTKLKISSSLENEEYGNESFENRSRG,not soluble
12,SATALSEEELDNEDYYSLLNVRREASSEELKAAYRRLCMLYHPDKHRDPELKSQAERLFNLVHQAYEVLSDPQTRAIYDIYGKRGLEMEGWEVVERRRTPAEIREEFERLQREREERRLQQRTNPKGTISVGVDATDLFDRYDEEYEDVSGSSFPQIEINKMHISQSIEAPLTATDTAILSGSLSTQNGNGGGSINFALRRVTSAKGWGELEFGAGDLQGPLFGLKLFRNLTPRCFVTTNCALQFSSRGIRPGLTTVLARNLDKNTVGYLQWRWGIQSAMNTSIVRDTKTSHFTVALQLGIPHSFALISYQHKFQDDDQTRVKGSLKAGFFGTVVEYGAERKISRHSVLGAAVSVGVPQGVSLKVKELEKQRESAATDVLQKKQEAESAVRLMQESVRRIIEAEESRMGLIIVNAWYGKFVNDKSRKSEKVKVIDVTVPLQCLVKDSKLILTEASKAGLPGFYDPCVGEEKNLKVLYQFRGVLHQVMVLDSEALRIPKQSHRIDTDG,soluble
13,SDERHKTDIAPISDKVLDAWEKVKFYQYKFKDAVDEKGEEARYHFGVIAQQIVKVFEDEGLSAFDYGLVGYDEWEATEDEYDSEGNLVEKGREAGNIYSIRPTECQWLEMACMRRKLERLSLEHHHHHH,soluble
14,SDLFTDGDIFQDIVDAACKRRVPVYIILDEAGVKYFLEMCQDLQLTDFRIRNIRVRSVTGVGFYMPMGRIKGTLSSRFLMVDGDKVATGSYRFTWSSSHVDRNLLLLLTGQNVEPFDTEFRELYAISEEVDLYRQLSLAGRVGLHYSSTVARKLINPKYALVSGCRHPPGEMMRWAARQQWEAGGNPEGQEEGASGGESAWRLESFLKDLVTVEQVLPPVEPIPLGELSQKDGRMVSHMHRDLKPKSREAPSRNGMGEAARGEAAPARRFSSRLFSRRAKRPAAPNGMASSVSTETSEVEFLTGKRPNENSSADISGKTSPSSAKPSNCVIS,soluble
15,SDPVVLSYMDSLLRQSDVSLLDPPSWLNDHIIGFAFEYFANSQFHDCSDHVSFISPEVTQFIKCTSNPAEIAMFLEPLDLPNKRVVFLAINDNSNQAAGGTHWSLLVYLQDKNSFFHYDSHSRSNSVHAKQVAEKLEAFLGRKGDKLAFVEEKAPAQQNSYDCGMYVICNTEALCQNFFRQQTESLLQLLTPAYITKKRGEWKDLIATLAKK,soluble
16,SDSTAGTDAVAVGGTFQFHSPDGKMEIFYDEADRQQLPDIGGDSLMEEGTQINLSDFENQVVILNAWGQWCAPCRSESDDLQIIHEELQAAGNGDTPGGTVLGINVRDYSRDIAQDFVTDNGLDYPSIYDPPFMTAASLGGVPASVIPTTIVLDKQHRPAAVFLREVTSKDVLDVALPLVDEA,soluble
17,SEAAETEAEAAALEVLAEVAGILEPVGLQEEAELPAKILVEFVVDSQKKDKLLCSQLQVADFLQNILAQEDTAKGLDPLASEDTSRQKAIAAKEQWKELKATYREHVEAIKIGLTKALTQMEEAQRKRTQLREAFEQLQAKKQMAMEKRRAVQNQWQLQQEKHLQHLAEVSAEVRERKTGTQQELDGVFQKLGNLKQQAEQERDKLQRYQTFLQLLYTLQGKLLFPEAEAEAENLPDDKPQQPTRPQEQSTGDTMGRDPGVSFKAVGLQPAGDVNLP,soluble
18,SEASFVQTTMALGLPSKKASSRNVIVERRNLITVCRFSVKTLLEKYTAEPIDDSSEEFVNFAAILEQILSHRFKACAPAGPASWFSSDGQRGFWDYIRLACSKVPNNCVSSIENMENISTARAKGRAWIRVALMEKRMSEYITTALRDNRTTRRFYDSGAIMLREEATVLTGMLIGLSAIDFSFCLKGEVLDGKTPVVIDYTPYLKFTQSYDYLTDEEERHSAESSTSEDNSPEHPYLPLVTDEDSWYNKWHKMEQKFRIVYAQKGYLEELVRLRESQLKDLEAENRRLQLQLEEAAAQNQREKRELEGVILELQEQLPDPPPPPRTGLIPGDHAPLAQGSKELTTSLVNQWPSLSTLHRPEGASNSKLYRRHSFMSTEPLSAEASLSSDSQRLGEAKRDEEPWGPIGSSEPN,not soluble
19,SEDHQHVPIDIQTSKLLDWLVDRRHCSLKWQSLVLTIREKINAAIQDMPESEEIAQLLSGSYIHYFHCLRILDLLKGTEASTKNIFGRYSSQRMKDWQEIIALYEKDNTYLVELSSLLVRNVNYEIPSLKKQIAKCQQLQQEYSRKEEECQAGAAEMREQFYHSCKQYGITGENVRGELLALVKDLPSQLAEIGAAAQQSLGEAIDVYQASVGFVCESPTEQVLPMLRFVQKRGNSTVYEWRTGTEPSVVERPHLEELPEQVAEDAIDWGDFGVEAVSEGTDSGISAEAAGIDWGIFPESDSKDPGGDGIDWGDDAVALQITVLEAGTQAPEGVARGPDALTLLEYTETRNQFLDELMELEIFLAQRAVELSEEADVLSVSQFQLAPAILQGQTKEKMVTMVSVLEDLIGKLTSLQLQHLFMILASPRYVDRVTEFLQQKLKQSQLLALKKELMVQKQQEALEEQAALEPKLDLLLEKTKELQKLIEADISKRYSGRPVNLMGTSL,soluble
